# Experimental data as given in publication PMC6013482, “Conformational switching of the pseudokinase domain promotes human MLKL tetramerization and cell death by necroptosis” (Nature Communications, 2018).
# Target: E351K human MLKL (residues 2–471), recombinant (human) (UniProt Q8NB16)
substance,measurement,value
"E351K human MLKL (residues 2–471), recombinant (from UniProt Q8NB16 2-471) (natural protein)","liposome dye release (5(6)-carboxyfluorescein), 1 μM protein, with ATP (% maximum dye release)",40
same,"liposome dye release (5(6)-carboxyfluorescein), 1 μM protein, without ATP",15 % of maximum
